Drawing on the RNAGym collection of RNA variant scans (doi:10.7554/elife.90254), this text covers self-cleavage for 167 variants.

B1: LINE1-mini (parent)
chain: GGCAGAGCUCAACACAGCGUGGCAAAGUGGCUGUGGCUAGACUGCC

The variants in this series derive from B1. Nature of the series: self-cleavage, relative activity (ratio to wild type); higher = more cleavage; in vitro, sequencing; the parent is a self-cleaving ribozyme.
Regarding A6C G27C, the self-cleavage is 0.57.
For A6C G27A, the self-cleavage is 0.5.
Turning to A6C G27U, the self-cleavage came out at 0.56.
In the case of A6G G27U, the self-cleavage stood at 0.08.
The figure for A6G G27C is 0.07.
On to A6G G27A, for which the self-cleavage was 0.14.
Take A6G G21A: the self-cleavage turned out to be 0.23.
For the variant A6G G21U, the self-cleavage turned out to be 0.13.
Take A6G G21C: the self-cleavage was 0.13.
As to A6C G40C, the self-cleavage is 0.1.
A6C G40U: the self-cleavage stood at 0.15.
Regarding A6C G40A, the self-cleavage amounted to 0.11.
In the case of A6G, the self-cleavage came to 0.12.
Then A6C U38C, with 0.21; and A6C U38A, with 0.28; and A6C U38G, with 0.02.
The figure for A6G C13A is 0.19; for A6G C13G it is 0.13.
For A6G C13U, the self-cleavage worked out at 0.15.
Regarding A6C G36A, the self-cleavage came to 0.31.
As for A6C G36C, the self-cleavage came out at 0.16.
A6C G36U: the self-cleavage amounted to 0.06.
For the variant A6C U32C, the self-cleavage came to 0.05.
In the case of A6C U32G, the self-cleavage stood at 0.05.
Consider A6C U32A, for which the self-cleavage amounted to 0.03.
The figure for A6G G30U is 0.13; for A6G G30A it is 0.19; for A6G G30C it is 0.13.
A6G C23G: the self-cleavage was determined as 0.1.
For the variant A6G C23A, the self-cleavage amounted to 0.11.
For the variant A6G C23U, the self-cleavage came to 0.1.
As to A6G G22U, the self-cleavage came out at 0.12.
Regarding A6G G22A, the self-cleavage came to 0.11.
Take A6G G22C: the self-cleavage worked out at 0.07.
A6C G44U: the self-cleavage turned out to be 0.18.
Consider A6C G44C, for which the self-cleavage stood at 0.24.
As to A6C G44A, the self-cleavage came to 0.22.
Then A6G A41C, with 0.15.
For A6G A41U, the self-cleavage stood at 0.1.
For A6G A41G, the self-cleavage worked out at 0.39.
As for A6G C45A, the self-cleavage came out at 0.15.
With A6G C45G, the self-cleavage amounted to 0.18.
Consider A6G C45U, for which the self-cleavage was 0.11.
Take A6G G44U: the self-cleavage worked out at 0.13.
Turning to A6G G44A, the self-cleavage came out at 0.46.
For A6G G44C, the self-cleavage came to 0.14.
As to A6G A11C, the self-cleavage was found to be 0.02.
The figure for A6G A11G is 0.02.
Turning to A6G A11U, the self-cleavage stood at 0.02.
Then A6G C42A, with 0.12.
With A6G C42U, the self-cleavage was found to be 0.07.
For A6G C42G, the self-cleavage is 0.04.
Take A6G C10U: the self-cleavage came to 0.04.
For A6G C10G, the self-cleavage was found to be 0.02.
Then A6G C10A, with 0.03.
On to A6G A24C, for which the self-cleavage worked out at 0.13.
As to A6G A24U, the self-cleavage turned out to be 0.19.
Then A6G A24G, with 0.12.
With A6G G29C, the self-cleavage stood at 0.07.
As to A6G G29A, the self-cleavage came to 0.08.
As to A6G G29U, the self-cleavage turned out to be 0.09.
For A6G G17U, the self-cleavage worked out at 0.04.
Regarding A6G G17C, the self-cleavage stood at 0.09.
On to A6G G17A, for which the self-cleavage amounted to 0.09.
In the case of A6G C8U, the self-cleavage was 0.22.
As for A6G C8G, the self-cleavage came out at 0.08.
Regarding A6G C8A, the self-cleavage turned out to be 0.15.
For the variant A6G G40U, the self-cleavage amounted to 0.1.
A6G G40A: the self-cleavage is 0.1.
The figure for A6G G40C is 0.05.
In the case of A6G A14C, the self-cleavage came out at 0.14.
On to A6G A14G, for which the self-cleavage worked out at 0.07.
Take A6G A14U: the self-cleavage worked out at 0.05.
As for A6C U9G, the self-cleavage turned out to be 0.11.
For the variant A6C U9A, the self-cleavage is 0.18.
Regarding A6C U9C, the self-cleavage was 0.03.
Consider A6G A16U, for which the self-cleavage came to 0.06.
Take A6G A16G: the self-cleavage came out at 0.12.
As to A6G A16C, the self-cleavage came out at 0.04.
Take A6G G19C: the self-cleavage came to 0.05.
Consider A6G G19A, for which the self-cleavage was 0.09.
Regarding A6G G19U, the self-cleavage amounted to 0.15.
As for A6G C31G, the self-cleavage amounted to 0.05.
Then A6G C31A, with 0.07; and A6G C31U, with 0.03; and A6G G7U, with 0.05.
The figure for A6G G7C is 0.14; for A6G G7A it is 0.11; for A6C U28G it is 0.2.
The figure for A6C U28A is 0.64.
For A6C U28C, the self-cleavage was determined as 0.36.
In the case of A6G A26U, the self-cleavage amounted to 0.1.
The figure for A6G A26C is 0.14; for A6G A26G it is 0.1; for A6C U43C it is 0.08.
A6C U43A: the self-cleavage worked out at 0.13.
For the variant A6C U43G, the self-cleavage was 0.03.
As to A6C G35C, the self-cleavage came out at 0.05.
In the case of A6C G35U, the self-cleavage came out at 0.09.
Consider A6C G35A, for which the self-cleavage came out at 0.08.
For the variant A6G G36A, the self-cleavage stood at 0.13.
As to A6G G36C, the self-cleavage was 0.09.
Consider A6G G36U, for which the self-cleavage was 0.04.
The figure for A6G U28A is 0.05.
In the case of A6G U28C, the self-cleavage is 0.05.
Take A6G A39U: the self-cleavage was 0.08.
Turning to A6G A39G, the self-cleavage was 0.03.
With A6G A39C, the self-cleavage was 0.15.
For the variant A6G C18U, the self-cleavage came to 0.08.
For the variant A6G C18G, the self-cleavage amounted to 0.11.
In the case of A6G C18A, the self-cleavage stood at 0.11.
On to A6G G35U, for which the self-cleavage worked out at 0.08.
Consider A6G G35A, for which the self-cleavage came to 0.05.
A6G G35C: the self-cleavage was 0.12.
For A6C G21U, the self-cleavage amounted to 0.44.
Regarding A6C G21C, the self-cleavage turned out to be 0.42.
Then A6C G21A, with 1.34; and A6C G30C, with 0.2; and A6C G30U, with 0.9.
Regarding A6C G30A, the self-cleavage was found to be 1.01.
In the case of A6G G33A, the self-cleavage stood at 0.06.
On to A6G G33C, for which the self-cleavage stood at 0.03.
Consider A6G G33U, for which the self-cleavage amounted to 0.07.
As for A6C G19U, the self-cleavage stood at 0.56.
The figure for A6C G19C is 0.3.
Then A6C G19A, with 1.02; and A6C G29C, with 0.36; and A6C G29A, with 0.7.
A6C G29U: the self-cleavage stood at 0.61.
Turning to A6C G22A, the self-cleavage was 0.66.
In the case of A6C G22C, the self-cleavage was found to be 0.65.
On to A6C G22U, for which the self-cleavage was determined as 0.57.
Take A6G C37U: the self-cleavage came to 0.03.
On to A6G C37G, for which the self-cleavage is 0.07.
For A6G C37A, the self-cleavage came out at 0.05.
Regarding A6G A12U, the self-cleavage was 0.09.
Then A6G A12C, with 0.05; and A6G A12G, with 0.03; and A6G C46G, with 0.08.
A6G C46A: the self-cleavage worked out at 0.13.
For A6G C46U, the self-cleavage is 0.09.
For the variant A6C G7U, the self-cleavage is 0.1.
The figure for A6C G7C is 0.08.
Consider A6G C15A, for which the self-cleavage amounted to 0.05.
As for A6G C15G, the self-cleavage was determined as 0.02.
Turning to A6G C15U, the self-cleavage was 0.17.
Take A6C G17A: the self-cleavage was 0.17.
A6C G17C: the self-cleavage worked out at 1.47.
On to A6C G17U, for which the self-cleavage was 0.11.
On to A6C U20C, for which the self-cleavage was found to be 0.33.
Then A6C U20A, with 0.52; and A6C U20G, with 0.35; and A6C U34G, with 0.25.
Regarding A6C U34C, the self-cleavage came out at 0.11.
Consider A6C U34A, for which the self-cleavage came out at 0.05.
With A6G U9C, the self-cleavage came to 0.02.
A6G U9G: the self-cleavage was 0.17.
Then A6G U9A, with 0.12.
Regarding A6G U20C, the self-cleavage came out at 0.1.
Then A6G U20G, with 0.13; and A6G U20A, with 0.04; and A6C G33C, with 0.07.
As for A6C G33U, the self-cleavage was determined as 0.09.
Then A6C G33A, with 0.06.
For the variant A6G A25U, the self-cleavage was 0.1.
In the case of A6G A25C, the self-cleavage was determined as 0.1.
For the variant A6G A25G, the self-cleavage came to 0.07.
